Consider two molecules from patent US20160347862A1 (Janssen / Centocor, published 2016).

Numbering of substitutions follows the chain as printed. Names may count otherwise.

Experiment [1] addresses T1, human thrombin (human, UniProt P00734 314-363; P00734 364-622). The experiment is described as follows: cell-based or functional assay.
Experiment [2] deals with T1, human thrombin. Description: cell-based or functional assay. The source holds these as a separate data set.
Experiment [3] concerns the target T1, human thrombin. The experiment is described as follows: estimated from the rate of S2238 hydrolysis by thrombin.
In experiment [4] the target is prothrombin (Homo sapiens (Human), UniProt P00734 44-622). Description: pull-down with IgA-binding lectin agarose; supernatant on non-reducing SDS-PAGE.
Experiment [5] addresses T1, human thrombin. Description: Biacore, antibody as ligand, after exposure to light.
The target in experiment [6] is T1, human thrombin. Description: Biacore, antibody as ligand, after storage for one month at 4° C.
Experiment [7] concerns the target T1, human thrombin. Description: ELISA binding to thrombin, four-parameter fit (log(agonist) vs. response -- Variable slope).
Experiment [8] concerns the target T1, human thrombin. The experiment is described as follows: Biacore, antibody as ligand, ambient condition; Control (ambient condition), not 4° C. storage or light exposure.

B1: wild-type anti-exosite 1 IgA antibody (antibody, V domains shown)
VH: QVQLIQSGSAVKKPGASVRVSCKVSGYTLTEAAIHWVRQAPGKGLEWMGGLDPQDGETVYAQQFKGRVTMTEDRSTDTAYMEVNNLRSEDTATYYCTTGDFSEFEPFSMDYFHFWGQGTVVTVAS
VL: EIVLTQSPATLSLSPGERATLSCRASQNVSSFLAWYQHKPGQAPRLLIYDASSRATDIPIRFSGSGSGTDFTLTISGLEPEDFAVYYCQQRRSWPPLTFGGGTKVEIKR
notes: also called anti-thrombin IgA; anti-IIa IgA
On to B1, for which, in experiment [1], the “thrombin hydrolysis of FVIII (feedback activation of thrombin via Xase complex)” value was found to be 7 fold and the “thrombin hydrolysis of platelet receptor PAR-1 peptide (activation of platelets)” value is 15 fold. Further, the “EC50 (read off the curve), Vi/V0 of S2238 cleavage by thrombin” value in experiment [2] is ~10 nM. Further, in experiment [3], the Kd is ~12 nM. The binding result in experiment [4] is reported as “no binding”.

B2: synthetic anti-exosite 1 IgG S30A variant antibody (antibody, V domains shown)
VH: B1 VH
VL: B1 VL with S30A
notes: also called ichorcumab S30A; ichorcumab
For the molecule B2, the values for the dissociation constant Kd in experiment [5], in experiment [6] and in experiment [8] were 1.8 nM, 1.74 nM and 1.77 nM, respectively. This molecule returned an EC50 in experiment [7] of 0.0126 µg/mL.
